In general, IC50 refers to the point on the concentration scale where inhibition reaches its midpoint. A high value points to weaker potency in that assay.

Data set [1] addresses T1, IE86 (IE2) C-terminal fragment (Human cytomegalovirus) (UniProt Q6SWP7).
T1 sequence: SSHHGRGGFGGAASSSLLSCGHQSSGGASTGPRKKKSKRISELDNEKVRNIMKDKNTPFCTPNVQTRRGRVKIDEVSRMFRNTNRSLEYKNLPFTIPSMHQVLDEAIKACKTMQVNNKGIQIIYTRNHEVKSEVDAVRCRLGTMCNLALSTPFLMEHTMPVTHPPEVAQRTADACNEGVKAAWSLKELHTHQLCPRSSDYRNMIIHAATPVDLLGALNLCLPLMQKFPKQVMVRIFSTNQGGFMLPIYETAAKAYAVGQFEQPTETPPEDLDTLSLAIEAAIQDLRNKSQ
The conditions noted are these: FPLC Superose 6; 20 mM HEPES pH 7.4, 250 mM NaCl, 1 mM DTT; most efficient length.

The target of a further data set is T2, IE175 (ICP4) (Herpes simplex virus type 1, UniProt P08392 P08392:1-1298).
T2 sequence: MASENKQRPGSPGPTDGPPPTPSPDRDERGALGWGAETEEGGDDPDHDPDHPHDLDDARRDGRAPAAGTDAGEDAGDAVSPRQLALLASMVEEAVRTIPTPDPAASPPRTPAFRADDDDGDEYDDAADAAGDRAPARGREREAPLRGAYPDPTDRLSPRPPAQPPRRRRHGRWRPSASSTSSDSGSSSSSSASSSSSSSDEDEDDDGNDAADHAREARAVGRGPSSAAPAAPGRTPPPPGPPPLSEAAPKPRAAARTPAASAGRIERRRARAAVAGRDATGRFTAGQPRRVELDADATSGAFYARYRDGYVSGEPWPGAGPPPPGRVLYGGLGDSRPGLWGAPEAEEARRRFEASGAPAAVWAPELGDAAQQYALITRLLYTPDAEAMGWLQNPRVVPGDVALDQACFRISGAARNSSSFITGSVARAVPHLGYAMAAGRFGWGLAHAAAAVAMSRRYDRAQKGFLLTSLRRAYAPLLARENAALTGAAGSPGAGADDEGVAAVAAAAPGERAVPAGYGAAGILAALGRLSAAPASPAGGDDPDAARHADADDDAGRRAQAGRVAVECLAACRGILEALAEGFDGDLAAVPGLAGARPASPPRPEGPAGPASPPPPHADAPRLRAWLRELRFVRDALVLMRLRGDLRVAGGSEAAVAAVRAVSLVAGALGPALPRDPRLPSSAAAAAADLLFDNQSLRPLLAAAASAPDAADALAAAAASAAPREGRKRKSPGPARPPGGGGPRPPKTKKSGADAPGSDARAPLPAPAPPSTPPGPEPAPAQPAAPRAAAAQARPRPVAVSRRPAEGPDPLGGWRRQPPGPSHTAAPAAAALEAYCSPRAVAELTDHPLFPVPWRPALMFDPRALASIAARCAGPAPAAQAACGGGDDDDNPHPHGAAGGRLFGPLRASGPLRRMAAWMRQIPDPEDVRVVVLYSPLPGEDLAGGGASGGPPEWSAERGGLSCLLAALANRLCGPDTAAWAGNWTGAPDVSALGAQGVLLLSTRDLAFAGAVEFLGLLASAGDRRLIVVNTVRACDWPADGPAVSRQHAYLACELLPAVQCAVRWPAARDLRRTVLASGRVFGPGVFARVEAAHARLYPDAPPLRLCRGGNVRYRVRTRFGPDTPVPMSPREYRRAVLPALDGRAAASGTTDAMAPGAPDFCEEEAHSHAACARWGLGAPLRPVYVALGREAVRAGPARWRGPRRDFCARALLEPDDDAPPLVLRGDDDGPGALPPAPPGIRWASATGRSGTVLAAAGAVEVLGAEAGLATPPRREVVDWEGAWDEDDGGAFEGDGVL
The data set can be described thus: cell_activity; HSV-1 C-DOT dose-response in 96-well format; indirect, decoy effect. The conditions noted are these: tags: YFP fusion, strain 17syn+; chain copies: 2.

Data set [2] addresses T3, IE86 (IE2) full-length, minimal feedback circuit or virus-encoded (Human cytomegalovirus, UniProt P19893 P19893:1-580).
T3 sequence: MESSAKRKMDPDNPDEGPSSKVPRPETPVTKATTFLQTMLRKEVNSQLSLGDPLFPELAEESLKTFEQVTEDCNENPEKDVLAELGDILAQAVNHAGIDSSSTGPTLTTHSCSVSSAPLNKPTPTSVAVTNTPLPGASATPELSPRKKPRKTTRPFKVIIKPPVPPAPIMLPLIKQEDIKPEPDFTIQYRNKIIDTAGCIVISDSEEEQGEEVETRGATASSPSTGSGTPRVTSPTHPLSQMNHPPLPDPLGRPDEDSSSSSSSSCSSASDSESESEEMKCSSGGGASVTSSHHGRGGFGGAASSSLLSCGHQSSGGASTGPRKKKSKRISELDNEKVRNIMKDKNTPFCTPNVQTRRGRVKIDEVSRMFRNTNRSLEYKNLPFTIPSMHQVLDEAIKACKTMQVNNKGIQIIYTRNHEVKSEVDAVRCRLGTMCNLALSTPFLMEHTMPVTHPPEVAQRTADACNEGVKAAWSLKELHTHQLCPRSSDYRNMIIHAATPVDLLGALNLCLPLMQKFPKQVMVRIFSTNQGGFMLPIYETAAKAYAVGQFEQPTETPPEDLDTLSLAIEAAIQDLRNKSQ
The data set is described as follows: cell_activity; CMV C-DOT dose-response in 96-well format; indirect, decoy effect. The conditions noted are these: tags: MIEP-IE86-IRES-GFP reporter or IE86-YFP virus; chain copies: 2.

“GACAGATCGTTTAGTGAACCGTACACGA (double strand) [28 bp crs DNA]”: the binding signal (% protein in complex fraction) in data set [1] was 98.

B1: C-DOTH (dsDNA)
DNA 1: CCGAGGACGCCCCGATCGTCCACACGGAG
DNA 2: CTCCGTGTGGACGATCGGGGCGTCCTCGG
modifications: PS at bonds marked * CCG*AGGAC*GCCCCGATC*GTCCACACG*GAG / CTC*CGTGTGGAC*GATCGGGGC*GTCCT*CGG
B1 yielded an IC50 with IE175 (ICP4) below 1 nM.

B2: C-DOTC (dsDNA)
DNA 1: GACAGATCGTTTAGTGAACCGTACACGA
DNA 2: TCGTGTACGGTTCACTAAACGATCTGTC
modifications: PS at bonds marked * G*ACAGATCGTT*TAGTGAACC*GTACACG*A / T*CGTGTAC*GGTTCACTA*AACGATCTGT*C
In turn, B2 displayed an IC50 in data set [2] below 1 nM.

For the origin of these results see patent publication US20210395746, “COMPOSITIONS FOR […] TRANSCRIPTIONAL FEEDBACK CIRCUIT DISRUPTION AND USES […]” (The J. David Gladstone Institutes, a testamentary trust …, published 2021).
